Test results reported in PMC6346101.

Columns and labels:
[1] = molecular target: Influenza D virus nucleoprotein, strain D/bovine/France/2986/2012 (Influenza D virus, strain D/bovine/France/2986/2012); assay: SEC-MALLS
[2] = molecular target: His-tagged D/NP_(TAIL) (505-D/NP-552) (Influenza D virus, strain D/bovine/France/2986/2012); assay: thermal shift assay (Thermofluor)
[3] = molecular target: Biotinylated D/NP_(TAIL) fused to a biotinylation motif (Influenza D virus, strain D/bovine/France/2986/2012); assay: SPR; Biacore 3000; […]; 10 mM Hepes pH 7.4, 150 mM NaCl, 0.05% Tween 20; […]
[4] = molecular target: Influenza D virus nucleoprotein, strain D/bovine/France/2986/2012 (Influenza D virus, strain D/bovine/France/2986/2012); assay: negative-stain electron microscopy

human importin-α7 without its IBB domain (amino-acids 58 to 536), O60684 58-536 (domain or fragment; other documents disagree on this pair), sequence (O60684 58-536): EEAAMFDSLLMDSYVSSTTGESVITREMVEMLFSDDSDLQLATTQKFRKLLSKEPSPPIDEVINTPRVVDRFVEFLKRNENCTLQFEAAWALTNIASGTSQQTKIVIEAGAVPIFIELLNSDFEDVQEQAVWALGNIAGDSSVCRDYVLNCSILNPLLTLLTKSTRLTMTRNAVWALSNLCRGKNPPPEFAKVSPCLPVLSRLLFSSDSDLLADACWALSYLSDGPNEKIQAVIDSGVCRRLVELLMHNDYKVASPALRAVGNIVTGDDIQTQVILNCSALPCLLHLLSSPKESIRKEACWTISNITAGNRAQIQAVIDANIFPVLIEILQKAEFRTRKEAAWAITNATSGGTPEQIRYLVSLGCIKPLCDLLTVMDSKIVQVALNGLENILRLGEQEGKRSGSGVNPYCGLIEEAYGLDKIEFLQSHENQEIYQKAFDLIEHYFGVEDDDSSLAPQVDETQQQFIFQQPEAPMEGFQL

| Substance | stoichiometry N (importin-α7 per D/NP tetramer) [1] | rise of the melting temperature [2] | Kd [3] | stoichiometry N [1] | stoichiometry N [4] |
| --- | --- | --- | --- | --- | --- |
| human importin-α7 without its IBB domain (amino-acids 58 to 536), O60684 58-536 (domain or fragment; other documents disagree on this pair) | 4 | 5 °C | 100 nM |  |  |
| Influenza D virus nucleoprotein, strain D/bovine/France/2986/2012 (from UniProt A0A0E3VZU8 1-552) (natural protein) |  |  |  | 4 | 4 |
